Measured values: patent publication US20130129746A1 (GlaxoSmithKline, published 2013)
Where a chain is given by its changes, count along the chain named. Names and notes keep the numbering of the source.

B1: DOM7h-11-86 (other)
VL: DIQMTQSPSSLSASVGDRVTITCRASRPIGTMLSWYQQKPGKAPKLLILAFSRLQSGVPSRFSGSGSGTDFTLTISSLQPEDVATYYCAQAGTHPTTFGQGTKVEIKR
notes: Vk dAb; also called DOM7h-11-65 W108R/N106I
B2: DOM7h-11-87 (other)
VL: B1 VL with V83F, P95H
notes: Vk dAb; also called DOM7h-11-67 W108R/N106I
B3: DOM7h-11-88 (other)
VL: B1 VL with V83F, P95H, I106N
notes: Vk dAb; also called DOM7h-11-67 W108R
B4: DOM7h-11-90 (other)
VL: B1 VL with S77N, V83F
notes: Vk dAb; also called DOM7h-11-57 W108R/N106I
B5: DOM7h14-10/G4SC-NCE fusion (other)
chain: DIQMTQSPSSLSASVGDRVTITCRASQWIGSQLSWYQQKPGKAPKLLIMWRSSLQSGVPSRFSGSGSGTDFTLTISSLQPEDFATYYCAQGLRHPKTFGQGTKVEIKRGGGGSC
modifications: C-terminal Cys of the GGGGSC spacer conjugated by maleimide through a PEG 4 linker to the NCE (small molecule ADAMTS-4 inhibitor)
notes: AlbudAb-drug conjugate; also called DOM7h14-10 NCE-GGGGSC; DOM7h-14-10 GGGGSC
B6: DOM7h-11-18 (other)
VL: B1 VL with L49W, A50F, F51G, V83F, Y87H
B7: DOM7h-11-19 (other)
VL: B1 VL with A50F, F51G, V83F, A91T
B8: DOM7h-14-10 (other)
VL: DIQMTQSPSSLSASVGDRVTITCRASQWIGSQLSWYQQKPGKAPKLLIMWRSSLQSGVPSRFSGSGSGTDFTLTISSLQPEDFATYYCAQGLRHPKTFGQGTKVEIKR
notes: Vk dAb (AlbudAb)
B9: DOM7h-11-15 (other)
VL: B1 VL with V83F
B10: DOM7h-14-18 (other)
VL: B8 VL with R93M, H94K, K96M
notes: Vk dAb (AlbudAb)
B11: DOM7h-14-19 (other)
VL: B8 VL with T22S, K42E, L92A, R93A, H94L, K96R
notes: Vk dAb (AlbudAb)
B12: DOM7h-11-12 (other)
VL: B1 VL with A50F, F51G, V83F
B13: DOM7h-11-56 (other)
VL: B1 VL with T22S, V83F, R108W
notes: Vk dAb
B14: DOM7h-11-57 (other)
VL: B1 VL with S77N, V83F, R108W
notes: Vk dAb
B15: DOM7h-11-65 (other)
VL: B1 VL with R108W
notes: Vk dAb
B16: DOM7h-11-67 (other)
VL: B1 VL with V83F, P95H, I106N, R108W
notes: Vk dAb
B17: DOM7h-11-68 (other)
VL: B1 VL with K42E, V83F, A91T, R108W
notes: Vk dAb
B18: DOM7h-11-69 (other)
VL: B1 VL with V83F, T93V
notes: Vk dAb
B19: DOM7h-11-79 (other)
VL: B1 VL with V83F, A91T, R108W
notes: Vk dAb
B20: DOM7h-11-80 (other)
VL: B1 VL with T22F, V83F, R108W
notes: Vk dAb

Each binder was assayed against T1, Rat Serum Albumin (rat, UniProt P02770 25-608) (assay: BIAcore SPR;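 as to koff: purified dAbs run at 1 µM, 500 nM and 50 nM over human, cynomolgus, mouse and rat serum albumin in BIAcore binding measurements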).
T1 construct: mature; purified protein on CM5 chips for BIAcore; also called RSA; rat SA
T1 sequence (P02770 25-608): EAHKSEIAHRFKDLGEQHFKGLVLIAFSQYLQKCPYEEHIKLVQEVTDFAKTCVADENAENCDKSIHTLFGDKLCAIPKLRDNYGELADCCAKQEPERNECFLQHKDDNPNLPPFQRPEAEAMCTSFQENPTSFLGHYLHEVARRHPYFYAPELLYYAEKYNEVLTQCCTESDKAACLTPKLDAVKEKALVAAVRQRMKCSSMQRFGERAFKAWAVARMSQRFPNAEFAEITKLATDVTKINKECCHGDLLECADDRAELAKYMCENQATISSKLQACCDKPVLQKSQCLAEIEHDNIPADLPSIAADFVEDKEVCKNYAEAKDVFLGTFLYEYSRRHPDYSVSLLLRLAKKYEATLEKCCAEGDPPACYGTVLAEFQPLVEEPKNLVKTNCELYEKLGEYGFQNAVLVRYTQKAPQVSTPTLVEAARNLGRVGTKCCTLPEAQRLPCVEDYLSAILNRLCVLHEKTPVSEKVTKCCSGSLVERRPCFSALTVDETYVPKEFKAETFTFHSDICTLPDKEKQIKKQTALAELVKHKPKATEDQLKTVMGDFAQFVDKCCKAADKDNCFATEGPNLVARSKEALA

| Binder | Ka [M⁻¹] | Kd [nM] | kon [M⁻¹ s⁻¹] |
| --- | --- | --- | --- |
| B1 | 2.8e+07 | 37.8 | 560000 |
| B2 | 5.77e+07 | 17.6 | 830000 |
| B3 | 5.96e+07 | 16.9 | 846000 |
| B4 | 1.91e+07 | 53.6 | 376000 |

Each binder was assayed against T2, Cynomolgus monkey Serum Albumin (Cynomolgus monkey, UniProt A2V9Z4 25-608) (assay: BIAcore SPR;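 as to koff: purified dAbs run at 1 µM, 500 nM and 50 nM over human, cynomolgus, mouse and rat serum albumin in BIAcore binding measurements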).
T2 construct: mature; purified protein on CM5 chips for BIAcore; also called CSA; cyno SA
T2 sequence (A2V9Z4 25-608): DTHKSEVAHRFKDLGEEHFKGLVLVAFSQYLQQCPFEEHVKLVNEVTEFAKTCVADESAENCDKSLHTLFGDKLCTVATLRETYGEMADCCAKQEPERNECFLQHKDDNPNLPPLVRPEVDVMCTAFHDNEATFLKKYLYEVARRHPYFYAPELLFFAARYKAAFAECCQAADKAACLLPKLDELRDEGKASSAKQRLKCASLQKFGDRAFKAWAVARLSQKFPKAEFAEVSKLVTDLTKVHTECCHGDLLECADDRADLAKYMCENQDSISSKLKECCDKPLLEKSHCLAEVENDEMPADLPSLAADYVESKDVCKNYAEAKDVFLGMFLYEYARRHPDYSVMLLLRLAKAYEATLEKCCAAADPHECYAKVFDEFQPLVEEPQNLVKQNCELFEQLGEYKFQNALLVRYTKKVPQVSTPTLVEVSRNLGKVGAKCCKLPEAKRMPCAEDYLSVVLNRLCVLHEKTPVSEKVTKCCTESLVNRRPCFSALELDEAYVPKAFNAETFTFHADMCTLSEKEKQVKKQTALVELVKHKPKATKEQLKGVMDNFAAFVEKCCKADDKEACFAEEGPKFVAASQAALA

| Binder | Ka [M⁻¹] | Kd [nM] | kon [M⁻¹ s⁻¹] |
| --- | --- | --- | --- |
| B1 | 1.08e+08 | 13.4 | 833000 |
| B2 | 2.47e+08 | 4.21 | 1.37e+06 |
| B4 | 1.01e+08 | 9.99 | 747000 |

What follows are binders tested against T1, Rat Serum Albumin (assay: BIAcore SPR (Albumin KD column)).

| Binder | Kd [nM] |
| --- | --- |
| B5 | 62 |

Each binder was assayed against T2, Cynomolgus monkey Serum Albumin (assay: BIAcore SPR, second independent experiment;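 also: purified domain antibodies run as analytes at 50 nM, 500 nM and 1 µM over HSA, CSA, MSA and RSA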).
Method: (§1) Binding to HSA, CSA, MSA and RSA by BIAcore was confirmed using purified protein at 3 concentrations 1 μM, 500 nM and 50 nM.

| Binder | Kd [nM] | koff [s⁻¹] | kon [M⁻¹ s⁻¹] |
| --- | --- | --- | --- |
| B6 | 65000 | 0.48 | 7300 |
| B7 | 375000 | 0.62 | 1700 |

The binders below were run against T1, Rat Serum Albumin (assay: BIAcore SPR, second independent experiment;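 also: purified domain antibodies run as analytes at 50 nM, 500 nM and 1 µM over HSA, CSA, MSA and RSA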).
Method: as §1

| Binder | Kd [nM] | koff [s⁻¹] | kon [M⁻¹ s⁻¹] |
| --- | --- | --- | --- |
| B6 | 29000 | 0.37 | 13000 |
| B7 | 17000 | 0.14 | 8100 |

Each binder was assayed against T3, Human Serum Albumin (human, UniProt P02768 25-609) (assay: BIAcore SPR, second independent experiment;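 also: purified domain antibodies run as analytes at 50 nM, 500 nM and 1 µM over HSA, CSA, MSA and RSA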).
T3 construct: mature; purified protein on CM5 chips for BIAcore; also called HSA; human SA
Method: as §1

| Binder | Kd [nM] | koff [s⁻¹] | kon [M⁻¹ s⁻¹] |
| --- | --- | --- | --- |
| B6 | 32000 | 0.27 | 8390 |
| B7 | 38000 | 0.209 | 5400 |

Each binder was assayed against T4, mouse serum albumin (mouse, UniProt P07724 25-608) (assay: BIAcore SPR, second independent experiment;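 also: purified domain antibodies run as analytes at 50 nM, 500 nM and 1 µM over HSA, CSA, MSA and RSA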).
T4 construct: mature; purified protein on CM5 chips for BIAcore; also called MSA; mouse SA
T4 sequence (P07724 25-608): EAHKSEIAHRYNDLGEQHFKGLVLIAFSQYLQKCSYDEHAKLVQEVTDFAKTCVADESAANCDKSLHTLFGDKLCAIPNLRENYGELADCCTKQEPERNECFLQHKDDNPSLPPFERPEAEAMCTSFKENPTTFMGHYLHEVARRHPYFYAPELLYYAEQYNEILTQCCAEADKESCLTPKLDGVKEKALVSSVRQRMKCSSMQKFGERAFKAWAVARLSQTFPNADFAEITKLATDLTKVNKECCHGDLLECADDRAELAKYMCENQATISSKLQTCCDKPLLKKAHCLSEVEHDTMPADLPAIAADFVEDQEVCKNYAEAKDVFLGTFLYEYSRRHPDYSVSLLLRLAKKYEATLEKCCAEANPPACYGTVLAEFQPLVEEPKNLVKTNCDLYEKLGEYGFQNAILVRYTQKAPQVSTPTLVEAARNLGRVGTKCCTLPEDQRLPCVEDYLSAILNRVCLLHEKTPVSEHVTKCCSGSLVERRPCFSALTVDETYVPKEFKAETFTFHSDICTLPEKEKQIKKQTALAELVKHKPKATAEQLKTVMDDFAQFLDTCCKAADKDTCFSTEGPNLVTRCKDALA
Method: as §1

| Binder | Kd [nM] | koff [s⁻¹] | kon [M⁻¹ s⁻¹] |
| --- | --- | --- | --- |
| B6 | 1600 | 0.0623 | 40000 |
| B7 | 18000 | 0.088 | 4900 |

What follows are binders tested against T3, Human Serum Albumin (assay: BIAcore SPR).

| Binder | Ka [M⁻¹] | Kd [nM] | kon [M⁻¹ s⁻¹] | koff [s⁻¹] |
| --- | --- | --- | --- | --- |
| B1 | 9.51e+07 | 10.7 | 790000 | – |
| B2 | 1.37e+08 | 7.39 | 1.17e+06 | – |
| B3 | 1.51e+08 | 6.71 | 1.14e+06 | – |
| B4 | 5.27e+07 | 20.2 | 469000 | 0.0087 |

The binders below were run against T2, Cynomolgus monkey Serum Albumin (assay: Albumin KD column of the PK table (repeats Table 6)).

| Binder | Kd [nM] |
| --- | --- |
| B8 | 9 |
| B9 | 3 |

These binders were tested against T1, Rat Serum Albumin in the same assay as above.

| Binder | Kd [nM] |
| --- | --- |
| B8 | 4 |
| B10 | 410 |
| B11 | 890 |
| B12 | 200 |
| B9 | 20 |

What follows are binders tested against T4, mouse serum albumin in the same assay as above.

| Binder | Kd [nM] |
| --- | --- |
| B12 | 130 |
| B9 | 10 |

Target: T2, Cynomolgus monkey Serum Albumin
Experiment: BIAcore SPR;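 as to koff: purified dAbs run at 1 µM, 500 nM and 50 nM over human, cynomolgus, mouse and rat serum albumin in BIAcore binding measurements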
Remark: another data set of the same source
From the text: (§2) MSA antigen was obtained from Sigma (essentially fatty acid free, ˜99% (agarose gel electrophoresis), lyophilized powder Cat. No. A3559) and CSA was purified from Cynomolgus serum albumin using prometic blue resin (Amersham).

| Binder | Kd [nM] | Ka [M⁻¹] | kon [M⁻¹ s⁻¹] |
| --- | --- | --- | --- |
| B9 | 5.3 | – | – |
| B13 | 5.2 | – | – |
| B14 | 6.1 | 1.63e+08 | 1.34e+06 |
| B15 | 15.7 | 6.35e+07 | 1.19e+06 |
| B16 | 2.7 | 3.69e+08 | 2.03e+06 |
| B17 | 37.9 | – | – |
| B18 | 5.9 | – | – |
| B19 | 11.7 | – | – |
| B20 | 5.5 | – | – |

Target: T1, Rat Serum Albumin
Experiment: BIAcore SPR;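 as to koff: purified dAbs run at 1 µM, 500 nM and 50 nM over human, cynomolgus, mouse and rat serum albumin in BIAcore binding measurements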
Remark: another data set of the same source
From the text: as §2

| Binder | Kd [nM] | Ka [M⁻¹] | kon [M⁻¹ s⁻¹] |
| --- | --- | --- | --- |
| B9 | 21 | – | – |
| B13 | 23.4 | – | – |
| B14 | 29.2 | 3.42e+07 | 566000 |
| B15 | 24.6 | 4.06e+07 | 780000 |
| B16 | 11.6 | 8.6e+07 | 1.33e+06 |
| B17 | 25.3 | – | – |
| B18 | 27.1 | – | – |
| B19 | 11.1 | – | – |
| B20 | 24.1 | – | – |

Target: T3, Human Serum Albumin
Experiment: BIAcore SPR
Remark: another data set of the same source
From the text: as §2

| Binder | Kd [nM] | Ka [M⁻¹] | kon [M⁻¹ s⁻¹] |
| --- | --- | --- | --- |
| B9 | 1.4 | – | – |
| B13 | 1.6 | – | – |
| B14 | 1.8 | 5.52e+08 | 1.22e+06 |
| B15 | 1.8 | 5.52e+08 | 1.3e+06 |
| B16 | 0.9 | 1.12e+09 | 1.75e+06 |
| B17 | 33.5 | – | – |
| B18 | 3.2 | – | – |
| B19 | 5.9 | – | – |
| B20 | 2.1 | – | – |

What follows are binders tested against T4, mouse serum albumin (assay: BIAcore SPR).
From the text: as §2

| Binder | Kd [nM] |
| --- | --- |
| B9 | 10.3 |
| B13 | 7.6 |
| B14 | 10.9 |
| B15 | 9.4 |
| B16 | 6.7 |
| B17 | 15.5 |
| B18 | 10 |
| B19 | 6.9 |
| B20 | 10.9 |

Target: T2, Cynomolgus monkey Serum Albumin
Experiment: BIAcore SPR
Remark: another data set of the same source
Method: as §1

| Binder | Kd [nM] | koff [s⁻¹] | kon [M⁻¹ s⁻¹] |
| --- | --- | --- | --- |
| B8 | 9 | 0.0115 | 1.6e+06 |
| B10 | 180 | 0.105 | 630000 |
| B11 | 225 | 0.156 | 700000 |
| B12 | ≥ 6000 | – | – |
| B9 | 3 | 0.00557 | – |
| B6 | 10000 | 1.36 | 225000 |
| B7 | ≥ 10000 | – | – |

Target: T1, Rat Serum Albumin
Experiment: BIAcore SPR
Remark: another data set of the same source
Method: as §1

| Binder | Kd [nM] | koff [s⁻¹] | kon [M⁻¹ s⁻¹] |
| --- | --- | --- | --- |
| B8 | 4 | 0.00964 | 4.57e+06 |
| B10 | 410 | 0.228 | 560000 |
| B11 | 890 | 0.287 | 320000 |
| B12 | 200 | 0.522 | 2.76e+06 |
| B9 | 20 | 0.021 | 1.1e+06 |
| B6 | 80 | 0.06 | 1.64e+06 |
| B7 | 28 | 0.091 | 980000 |

Target: T3, Human Serum Albumin
Experiment: BIAcore SPR
Remark: another data set of the same source
Method: as §1

| Binder | Kd [nM] | koff [s⁻¹] | kon [M⁻¹ s⁻¹] |
| --- | --- | --- | --- |
| B8 | 12 | 0.0139 | 1.5e+06 |
| B10 | 280 | 0.0339 | 189000 |
| B11 | 70 | 0.0525 | 826000 |
| B12 | 350 | 0.413 | 1.26e+06 |
| B9 | 1 | 0.00184 | 2e+06 |
| B6 | 36 | 0.051 | 3.4e+06 |
| B7 | 65 | 0.11 | 1.8e+06 |

Target: T4, mouse serum albumin
Experiment: BIAcore SPR
Remark: another data set of the same source
Method: as §1

| Binder | Kd [nM] | koff [s⁻¹] | kon [M⁻¹ s⁻¹] |
| --- | --- | --- | --- |
| B8 | 30 | 0.0341 | 1.29e+06 |
| B10 | 65 | 0.0924 | 2.28e+06 |
| B11 | 60 | 0.0576 | 1.16e+06 |
| B12 | 130 | 0.189 | 1.53e+06 |
| B9 | 10 | 0.0094 | 1.1e+06 |
| B6 | 150 | 0.024 | 440000 |
| B7 | 100 | 0.037 | 1.4e+06 |
